Where a SMILES comes first, the peptide text is derived from it. [ ]: non-standard residue; d: D form.
How the values were obtained:
[1] = molecular target: T1, PKC-α (Homo sapiens, UniProt P17252); experiment: ELISA-based competitive binding assay with purified PKC isoform; design: key to Affinity for PKC isoform α: —: no detectable affinity; Low to very low affinity at 10X or 20X or both PRE concentrations in at least one cell line in the cell extract assay; Low affinity in purified isoform assay.; Moderate affinity at 10X or 20X or both PRE concentrations in at least one cell line in the cell extract assay.; High affinity at 10X or 20X or both PRE concentrations in at least one cell line in the cell extract assay; High affinity in purified isoform assay; details: for Affinity for PKC isoform α: Purified isoform
Method: (§1) Peptides PRE 1, 2, 3, 4, 5, 6, 7, 8, 9, 10, 11, 12 and 13 (see Table 3) were tested for their ability to interfere with binding of PKC isoform-specific antibodies to their target PKC isoforms using a competitive binding assay and purified PKC isoforms.
(§2) Procedure: Competitive binding was assessed using a 96 well plate ELISA-based assay as described below.
(§3) Greiner 96 well ELISA plates were coated with the appropriate PKC isoform diluted in PBSN (PBS with Calcium/Magnesium+0.05% Sodium azide w/w). 50 μL/well at 250 ng/mL was used. Control wells contained PBSN only. Plates were incubated overnight at 4° C.
(§4) The plates were washed 3 times with 200 μL of dH2O per well, then 100 μL of blocking solution was added per well and the plate incubated for 1 h at 37° C. The washing steps with dH2O were repeated and 50 μL of the appropriate PRE solution (PRE stock solution [20 mM in DMSO] diluted in PBSN) was added and the plate incubated for 1 h at room temperature.
(§5) After incubation, 5 μL of 1.1:400 anti-PKC (isoform specific antibody) was added per well (to provide a final concentration of 1:4000). For PKC-epsilon, 1.1:800 dilution was used and for PKC-zeta a 1.1:100 dilution was used due to high and low binding affinity, respectively. The plates were then incubated 1 h at room temperature, followed by washing with dH2O as described above.
(§6) 50 μL of 1:1000 dilution of Alkaline Phosphatase (AP) conjugated antibody (anti-rabbit for all except zeta, which was anti-goat) was then added and the plate incubated for 1 h at room temperature. Washing with dH2O was then repeated. Finally, 100 μL of pNPP solution in pNPP buffer (2 mM MgCl2, 100 mM Sodium bicarbonate in water, pH 9.8) was added to all wells and incubated for 8 minutes for α, βI, βII ε, and ζ, or for 15-20 mins for δ (until sufficient coloration is observed). The reaction was stopped by addition of Stop solution (2N NaOH) and the absorbance at 405 nm was read on a Galaxy Plate reader.
(§7) Controls were PKC without PRE; blank controls, and controls containing the final concentrations of DMSO used for solubilizing the PREs. The non-specific binding capacity related to DMSO was also measured.
(§8) The antibodies used were as follows: anti-PKC α (Cat. No. SC-208); anti-PKC βI (Cat. No. SC-209); anti-PKC βII (Cat. No. SC-210); anti-PKC δ (Cat. No. SC-213); anti-PKC ε (Cat. No. SC-214); anti-PKC ζ (Cat. No. SC-216-G) (all from Santa Cruz Biotechnology, Inc.). The AP-conjugated antibodies were obtained from Jackson Immuno Research Laboratories (West Grove, Pa.).
(§9) Calculations: The OD values measured at 405 nm represent the free PKC coated per well.
(§10) OD405 PKC alone−Blank OD405 of each sample=OD405 coated isoform
(§11) (OD405 of sample X/OD405 coated isoform)×100=% n that represents the percentage of X binding compared to control.
(§12) 100-% n measures the relative binding capacity of X towards the tested isoform.
(§13) The apparent binding capacity of the DMSO samples was then subtracted from X binding capacity.
(§14) All measurements were made in triplicate and the values in the table represent the averaged calculated binding capacity values after subtraction of the DMSO apparent binding capacity (averaged from 12 values, respectively 10.80, 11.20 and 16.40 corresponding to the concentrations of DMSO used to dilute the […] at 200, 100 and 50 μM respectively). The results allow for quantitative comparison of the binding capacity of each PRE towards an individual isoform within each table, but not among isoforms due to differences in sensitivity of the specific antibodies toward the secondary antibody. This applies particularly to PKC-delta. As noted above, the colour development duration was increased 2-3 times and, as a result, the OD405 measurements may be overestimated for this isoform.

[2] = molecular target: PKC-βII (Homo sapiens, UniProt P05771); experiment: as above; design: key to Affinity for PKC isoform βII: —: no detectable affinity; Low to very low affinity at 10X or 20X or both PRE concentrations in at least one cell line in the cell extract assay; Low affinity in purified isoform assay.; Moderate affinity at 10X or 20X or both PRE concentrations in at least one cell line in the cell extract assay.; High affinity at 10X or 20X or both PRE concentrations in at least one cell line in the cell extract assay; High affinity in purified isoform assay; details: for Affinity for PKC isoform βII: Purified isoform
Method: as §1, §2, §3, §4, §5, §6, §7, §8, §9, §10, §11, §12, §13, §14

[3] = molecular target: T1, PKC-α; experiment: Competitive binding assay using cell extracts (Western blot); design: endogenous PKC-α in (A) untreated human neuroblastoma (IMR-32) cells; endogenous in cells; host or cells: IMR-32 human neuroblastoma cells; key: —: no detectable affinity; Low to very low affinity at 10X or 20X or both PRE concentrations in at least one cell line in the cell extract assay; Low affinity in purified isoform assay.; Moderate affinity at 10X or 20X or both PRE concentrations in at least one cell line in the cell extract assay.; High affinity at 10X or 20X or both PRE concentrations in at least one cell line in the cell extract assay; High affinity in purified isoform assay; details: Cell extract; PRE 10X or 20X antibody concentration
[4] = PRE 50 μM, purified PKC-βII, read-out: calculated binding capacity (100-% n, DMSO apparent binding subtracted)
[5] = PRE 100 μM, purified PKC-βII, read-out: calculated binding capacity (100-% n, DMSO apparent binding subtracted)

Chain of PKC-βII (P05771 1-673 isoform P05771-2): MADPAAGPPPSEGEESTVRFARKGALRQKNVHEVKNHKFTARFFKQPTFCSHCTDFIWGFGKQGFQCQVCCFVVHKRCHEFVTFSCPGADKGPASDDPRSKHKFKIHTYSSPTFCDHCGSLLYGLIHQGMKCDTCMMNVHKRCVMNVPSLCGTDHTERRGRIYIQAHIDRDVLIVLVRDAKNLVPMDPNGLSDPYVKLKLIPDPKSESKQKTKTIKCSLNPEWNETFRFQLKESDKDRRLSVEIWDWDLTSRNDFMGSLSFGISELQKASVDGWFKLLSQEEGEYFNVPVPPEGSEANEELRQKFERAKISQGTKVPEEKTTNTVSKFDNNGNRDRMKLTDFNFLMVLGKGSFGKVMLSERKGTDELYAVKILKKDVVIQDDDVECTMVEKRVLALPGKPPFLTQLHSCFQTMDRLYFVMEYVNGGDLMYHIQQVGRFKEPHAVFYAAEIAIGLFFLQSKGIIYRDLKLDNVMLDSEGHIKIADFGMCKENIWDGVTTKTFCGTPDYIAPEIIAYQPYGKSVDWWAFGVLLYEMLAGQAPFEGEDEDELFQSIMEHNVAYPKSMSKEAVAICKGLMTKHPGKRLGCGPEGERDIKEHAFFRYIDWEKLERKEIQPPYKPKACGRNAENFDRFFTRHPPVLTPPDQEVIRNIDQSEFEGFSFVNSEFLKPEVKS

Compound | Affinity for PKC isoform α [1] | Affinity for PKC isoform βII [2] | Affinity for PKC isoform α [3] | other results
CC[C@H](C)[C@H](NC(=O)[C@H](CO)NC(=O)[C@@H](NC(=O)CNC(=O)[C@@H](NC(=O)[C@H](CC(C)C)NC(=O)[C@H](CC(N)=O)NC(=O)[C@H](CCC(N)=O)NC(=O)[C@H](C)NC(=O)[C@H](CC(=O)O)NC(=O)CNC(=O)CNC(=O)[C@H](CCCCN)NC(=O)[C@@H](NC(=O)[C@H](CCC(=O)O)NC(=O)[C@H](CCC(N)=O)NC(=O)[C@@H](NC(=O)CNC(=O)[C@H](CCCCN)NC(=O)[C@H](C)NC(C)=O)[C@@H](C)CC)C(C)C)[C@@H](C)CC)[C@@H](C)CC)C(N)=O [PRE 3] (Ac-AKGIQEVKGGDAQNLIGISI-NH2) | H | — | H | inhibition at 50 µM [2, 4]: 0%; inhibition at 100 µM [2, 5]: 0%
CC[C@H](C)[C@H](NC(=O)[C@H](CO)NC(=O)[C@@H](NC(=O)CNC(=O)[C@@H](NC(=O)[C@H](CC(C)C)NC(=O)[C@H](CC(N)=O)NC(=O)[C@H](CCC(N)=O)NC(=O)[C@H](C)NC(=O)[C@H](CC(=O)O)NC(=O)[C@H](CCCCN)NC(C)=O)[C@@H](C)CC)[C@@H](C)CC)C(N)=O [PRE 4, Ac-KDAQNLIGISI-NH2] (Ac-KDAQNLIGISI-NH2) | H | L | H | 
CC[C@H](C)[C@H](NC(=O)[C@H](CO)NC(=O)[C@@H](NC(=O)CNC(=O)[C@@H](NC(=O)[C@H](CC(C)C)NC(=O)[C@H](CC(N)=O)NC(=O)[C@H](CCC(N)=O)NC(=O)[C@H](C)NC(=O)[C@H](CC(=O)O)NC(=O)[C@H](CCCCN)NC(=O)CNC(=O)CNC(=O)[C@H](CCCCN)NC(=O)[C@@H](NC(=O)[C@H](CCC(=O)O)NC(=O)[C@H](CCC(N)=O)NC(=O)[C@@H](NC(=O)CNC(=O)[C@H](CCCCN)NC(=O)[C@H](C)NC(C)=O)[C@@H](C)CC)C(C)C)[C@@H](C)CC)[C@@H](C)CC)C(N)=O [PRE 5] (Ac-AKGIQEVKGGKDAQNLIGISI-NH2) | — | — | M | inhibition at 50 µM ([1]; PRE 50 μM, purified PKC-α, read-out: calculated binding capacity (100-% n, DMSO apparent binding subtracted)): 0%; inhibition at 100 µM ([1]; PRE 100 μM, purified PKC-α, read-out: calculated binding capacity (100-% n, DMSO apparent binding subtracted)): 0%; inhibition at 200 µM ([1]; PRE 200 μM, purified PKC-α, read-out: calculated binding capacity (100-% n, DMSO apparent binding subtracted)): 0%; inhibition at 50 µM [2, 4]: 0%; inhibition at 100 µM [2, 5]: 0%; inhibition at 200 µM ([2]; PRE 200 μM, purified PKC-βII, read-out: calculated binding capacity (100-% n, DMSO apparent binding subtracted)): 0%
Ac-ISIGILQNADK-NH2 (not fully specified; printed as Ac-ISIGILQNADK-NH2) [PRE 7] | L | — | L | 
Ac-KDANQLIGISI-NH2 [PRE 6] | — | — | H/L | 
RRKKGGKDFVVKR [PRE 1] | — | — | H | 

The next lines start with results.

Affinity for PKC isoform α [1] | Affinity for PKC isoform βII [2] | Affinity for PKC isoform α [3] | Compound | other results
— | L | H/L | Ac-ISIGILNQADK-NH2 [PRE 10] | 
— | — | — | Ac-KDAQNLI-NH2 [PRE 12] | 
— | — | M/H | Ac-RDAQNLI-NH2 [PRE 13] | 
L | — | H/L | Ac-RDAQNLIGISI-NH2 [PRE 11] | 
— | H | M/L | Ac-isigilqnadk-NH2 (Ac-[dI][dS][dI]G[dI][dL][dQ][dN][dA][dD][dK]-NH2; SMILES CC[C@@H](C)[C@@H](NC(C)=O)C(=O)N[C@H](CO)C(=O)N[C@@H](C(=O)NCC(=O)N[C@@H](C(=O)N[C@H](CC(C)C)C(=O)N[C@H](CCC(N)=O)C(=O)N[C@H](CC(N)=O)C(=O)N[C@H](C)C(=O)N[C@H](CC(=O)O)C(=O)N[C@H](CCCCN)C(N)=O)[C@H](C)CC)[C@H](C)CC) [PRE 9] | calculated binding capacity (100-% n, DMSO apparent binding subtracted) ([1]; PRE 100 μM, purified PKC-α): 5.35%; calculated binding capacity (100-% n, DMSO apparent binding subtracted) ([2]; PRE 50 μM, purified PKC-βII): 8.14%; calculated binding capacity (100-% n, DMSO apparent binding subtracted) ([2]; PRE 100 μM, purified PKC-βII): 0.3%
— | — | M/L | ILEDKGGDAQNLIGISI [PRE 8] | 

Source: patent publication US20110039770A1, “INHIBITORS OF PROTEIN KINASE C ISOFORMS AND USES THEREOF” (PHARMAGAP INC., priority 2005, published 2011)
